Data as given in paper PMC4104448.

Molecular target: T1, Biotinylated human β-glucocerebrosidase (residues 40A-536R) (human)
T1 sequence (P04062 whole entry, looked up): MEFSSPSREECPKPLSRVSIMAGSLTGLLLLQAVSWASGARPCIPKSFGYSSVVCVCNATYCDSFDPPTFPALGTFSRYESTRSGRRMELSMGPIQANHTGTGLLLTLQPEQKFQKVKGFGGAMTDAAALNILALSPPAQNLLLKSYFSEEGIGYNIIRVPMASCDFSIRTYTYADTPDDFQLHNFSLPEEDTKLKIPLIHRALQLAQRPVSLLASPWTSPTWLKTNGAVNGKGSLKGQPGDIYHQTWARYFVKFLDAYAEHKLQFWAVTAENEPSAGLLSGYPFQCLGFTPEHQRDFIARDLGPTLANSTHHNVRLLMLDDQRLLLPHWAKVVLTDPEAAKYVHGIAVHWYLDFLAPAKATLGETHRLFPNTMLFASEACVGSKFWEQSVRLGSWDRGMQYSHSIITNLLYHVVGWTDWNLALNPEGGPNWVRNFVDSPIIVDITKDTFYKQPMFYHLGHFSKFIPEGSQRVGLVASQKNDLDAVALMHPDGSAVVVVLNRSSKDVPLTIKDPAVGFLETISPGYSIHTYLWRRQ
Experiment: SPR; equilibrium binding; about 1,000 RU of biotinylated ligand on a streptavidin-coupled CM5 chip, LIMP-2 as analyte; Biacore T100, 25 °C, 10 mM HEPES pH 7.5, 150 mM NaCl, 0.005% Tween 20; one-site saturation binding model

Kd: 1.4 µM
B1: Human LIMP-2 luminal domain (residues 28-431) produced from HEK293S (GnTI-) cells, with limited glycosylation (domain or fragment)
chain: VFQKAVDQSIEKKIVLRNGTEAFDSWEKPPLPVYTQFYFFNVTNPEEILRGETPRVEEVGPYTYRELRNKANIQFGDNGTTISAVSNKAYVFERDQSVGDPKIDLIRTLNIPVLTVIEWSQVHFLREIIEAMLKAYQQKLFVTHTVDELLWGYKDEILSLIHVFRPDISPYFGLFYEKNGTNDGDYVFLTGEDSYLNFTKIVEWNGKTSLDWWITDKCNMINGTDGDSFHPLITKDEVLYVFPSDFCRSVYITFSDYESVQGLPAFRYKVPAEILANTSDNAGFCIPEGNCLGSGVLNVSICKNGAPIIMSFPHFYQADERFVSAIEGMHPNQEDHETFVDINPLTGIILKAAKRFQINIYVKKLDDFVETGDIRTMVFPVMYLNESVHIDKETASRLKSMINT
modifications: N-linked P-Man9GlcNAc2 (with terminal mannose 6-phosphate) at N325; sugars on all nine N-linked glycosylation sites, limited processing
